Data on 20 sequences can be found in a protein production outcome set (Wang et al. 2014).
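Also: failed if final PepcDB status was selected cloned or expressed and not failed if soluble or beyond.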

The nature of this data set: label from the status in PepcDB records.
For “MRKVLLTIRKIAMTQPTSRKADLVYQLNDRPPLPQTLFAALQHLLAMFVAVITPSLIICQSLGVPADQTNTIISMSLFASGLSSFIQIRTFGPIGSGLLSIQGTSFNFLGPIIGAGLALKAGGADIETMMAAIFGTILVASSAEILLSRVLQFAQRIITPLVSGIVVTLIGLTLVQVGLISMGGGYAAMADGSFGSLDKLALAGTVLAIIVLLNRAHNPYVRVASIVIAMLVGYVMAYLMGMVNTDNLAETQFIALPIPMQYGLGFDWSLFIPLVLIFLITALEAIGDITATSEVSGEPVKGPVYMKRIKGGVLADGLNSALAAVFNSFPNSTFSQNNGVILLTGVASRYVGYFIAGMLVLLGLFPGVASFVQLIPEPVLGGATIVMFGTIAAAGVRIISRVDLDRRAILIMALSFSMGLGIAQKPEILQFMPEFIKNLFSSGVAAGGITAIVLNLLLPEVRRDEDAASVAKTEAAQESN”, the protein production entry was “failed”. The result for “SLKKVITVNEWYTTTVAATMLGRRPTDEDAILVSAPATSRPNVRIKAVFDGHAGEATSQYCAKHAAKHLGKLSEFTFAEVKKACLSLDAEIIRKLGPKHVAGSTGIIVAIERLSAPVVENVVGREIVPRAHEETFVPLEKLIQEEEEAEHPELVGRYPRVPDVQQKTIPAGSFLVTAINIGDSRATLIHSDGGLTRLSKDHKPNHPTEASRIEKAGGSVETFDVPRVDGVLALSRAFGDSDFKMNPNLPPEEQKVIAVPDVRQFYALSSDLLLLACDGVYEPSGMDWAYVRDLTVAEMQRSKGDLEEVAARVMDYAYDMNSQDNISVMLVAFHNQEVEHPTAVYKVVSGQVDKVEWDVAGKKGN” reads “not failed”; that for “MPLTNHTPEDRVQDIFDHIAPQYDQMNSVISLGTHHWWRQRVMQAMTLHAGDFALDVCCGTGDWTIALAQAVGPAGHVVGFDFSGVMLQHATTKVRQAQLDDRITLRQGDAMQLPYPDNYFNVVTIGFGLRNVPDATQVLREMARVVKPGGQVVCLETSQPTNPLVHAGWQVYFGHVVPLMGRLAHHYQAYNYLQSSTHHFVSAKELSRLFTAAGLTQVHYDLFNLGAAAVHWGRKPYLEHHHHHH”, “not failed”.

Consider “MDIISSYSPIHVVGGGLAGSEAAWQIASAGVPVILHEMRGVRGTDAHKTDGLAELVCSNSFRSDDATSNAVGVIHAEMRMAGSLIMAAADRHQVPAGGALAVDRDGFSDAVTRAIHDHPLITVMREEITGLPPSDWDLAIVATGPLTAPSLAAAIQAETGEDSLAFFDAIAPIVYRESIDMDICWYQSRYDKVGPGGTGKDYINCPMDEAQYNAFVNALIAGDTVGFKEWEGTPYFDGCLPIEVMAERGRETLRHGPMKPMGLTNAHNPTVKAYAVVQLRQDNALGTLYNMVGFQTKLKYGAQAEIFRMIPGLENAEFARLGGLHRNTYINSPTLLDPSLTLKSRPGLRFAGQITGCEGYVESASVGLMAGRFAAAERKGEAISLPPATTALGSLLGHITGGHIVTDEEPGKRSFQPMNINFGLFPELEPGSIVKPEGVKRFRGKDKTIMKRQLIARRALADCAAWLGQTRTLAERA”, for which the protein production entry is recorded as “failed”.

Regarding “MLAGGAARRLGGADKPGLRVGGRPLLDRVLAACAGARRTVVVADPRPTARPVTWAREDPPGGGPLAALAAGLRHTTAEYVLVASADLPFLAGPTVGRLLSALAAGDADGVLLTDADGRDQPLVAAYRAPALRRELAALARNRAGRGERADGAQLTGLPLRRLTGALRLTRVPDAVAAFDCDTWDDLATARARIREHGHVLDEWISAAKDELGIDLDVDTGILLDLARDAAHGVARPAAPLTTFLVGYAAGRAGGGPEAVAETARKAAALAQRWAEEAADTGSAPARGKPDVAPDATPDTRPDA”, the protein production entry is on record as “failed”. On to “MIERILASLILCLMLGIPFGMMFSFTGDVVLNFTFFWPLFMSGLWITGGLYFWFHYERHWRWGDGVIPDEPTGRPLVSILIPCYNEGPNVRETIEAALAQRYTHIEVIAVNDGSNDDTGDELNRLAEQYDKLRVIHLAHNQGKALALQAACAAAKSDLLVCIDGDALLDPDAVAYLINPLINNPRVGAVTGNPRIRTRSTLIGRIQVGEFSSIIGLIKRTQRVHGKVFTVSGVIAAFRRSALAEVGYWSPDMITEDIDISWKLQLRHWTIFFEPRALCWILMPEKLSGLWKQRLRWAQGGAEVFLKNFRHLWSWRYRRMWPLFLEYSISILWAFTYAVSVLLYLLGFLIELPEEIRVETLFPPAFTGMMIGVVCLIQFAVSMLIERRYEKDIGKYLFWVIWYPMVYWTLSLFTSLVSFPKVMLRSRKKRARWESPDRGIERG”, for which the protein production entry is listed as “failed”.

On to “MAMVFCRGCAKEIHETALNCPQCGASQFPATPVKQLQENGSPWMAITSLVLGILCSLALFDDGEWDLETIVGLGMCSVAGLALGIVSINKKMPGYGIAIAGTVLSAVSLLVFFGLIVN”, for which the protein production entry was “failed”. As to “TFYSVRMRASMNGSHEDGGKHISGGERLIPFHEMKHTVNALLEKGLSHSRGKPDFMQIQFEEVHESIKTIQPLPVHTNEVSCPEEGQKLARLLLEKEGVSRDVIEKAYEQIPEWSDVRGAVLFDIHTGKRMDQTKEKGVRVSRMDWPDANFEKWALHSHVPAHSRIKEALALASKVSRHPAVVAELCWSDDPDYITGYVAGKKMGYQRITAMKEYGTEEGCRVFFIDGSNDVNTYIHDLEKQPILIE”, the protein production result was “not failed”.

On to “MFKTILLAYDGSEHARRAAEVAKAEAEAHGARLIVVHAYEPVPDYLGEPFFEEALRRRLERAEGVLEEARALTGVPKEDALLLEGVPAEAILQAARAEKADLIVMGTRGLGALGSLFLGSQSQRVVAEAPCPVLLVR”, for which the protein production entry is “not failed”.

Regarding “HYGEEPELVPSYTIFFSGCNFRCVFCQNWDISQFRVGVELLPEYLALKIERAYRFGARNVNFVGGEPTPNLPYILETLRYVNVPIPVVWNSNMYMSEEAMKLLDGIVD”, the protein production result is reported as “failed”. The result for “MRKVLMFLSTALLLAILSLSFTGLDLKAKAASDLYPLPAPIIDVFPDDGLAKDMAKNLNKDSVNDVIDQDDLDALTGLGFETSTITNDSMQLLERAMFNNVTDVSIMEFGAKLTEFPDITTIPHLKTLFFADPPGRLTRNLSLPNYQNYPEMDTITMSGNNLIGSIPDFTGMPALKQLYMSEMLITSDELPNFNNIPLLITLDLSSNQLTTIPDFQNIPNLTFLDLNANLLTNTPDFQNLPKLTDLNLRHNNLTGTMVNYTNLPSLESLNLDYNFLTELPSNVLDTIYVQSQNGELPDQTINQGDTCTIDLPIYFQMEETNMLVSPEVTGEYIGISVIQLPTTVNEEGNTITVDTSALSPGEYKLDVSYNHNYATGGVCSYDWNVTIN” reads “failed”; that for “MIALAASSLGNTPIASFNRHFRFRLHPRNPLIQAAVSPSSSSSSPTASSGFDLSSLESAINKKDSNGVKEALDKLSEEGWAKKWSSQPYLSRRTTSLRELTTLGIKNAETLAIPSVRNDAAFLFTVVGSTGFIAVLAGQLPGDWGFFVPYLVGSISLVVLAVGSVSPGLLQAAISGFSTFFPDYQERIAAHEAAHFLGTLEKFKSFDSKVAYLIGLPILGYSLDIGKEHVNLIDERLAKLIYSGKLDSKELDRLAAVAMAGLAAEGLKYDKVIGQSADLFSLQRFINRSQPKISNEQQQNLTRWAVLYSASLLKNNKTIHEALMAAMSKNASVLECIQTIETAS”, “failed”; that for “MRTIYVIGIGTGSPEFLTLQAISGLRHAQAIVALDKGEQKSDLLALRQKIVDTHAPGTPIYAVTDPERDRNPDNYEEEVRRWHAERAHLLASTIRERTPDDGAVAFLVWGDPSLYDSTLRIIEHMRNLEDLHADVKVIPGITAVQVLTAEHGILINRIGEAIHITTGRNLPETSAKDRRNCVVMLDGKTAWQDVATEHTYMWWGAFLGTEQQVLRKGYVHEIGAQVAELKQQLRTEHGWIMDTYLLRELD”, “not failed”.

As for “MIRTAKRTELIEVAQGRRPADIVIKGGTVVNVYSGEFLRQNVAIYHDAIAYVGEKEVAVDEHTIVIDAEGMYVSPGFIEPHAHPWVLYNPVSMTAKVLPLGTTTTVNDNLFFYLHFGVDGFRQLIEDLRVLPGHFFWLVRLVSQADFPGERDWFDPRHIQELLAMDEVVGTAEVTRWPLLYQGDPFLLETIEAAKRAGKVVDGHTAGCSYEKLNSIAASGVSACHEAITAEEALHRLRLGMWTTLRHSSLRPDFPEIIRLITEKKVSTQRITMTTDGPHPGFIEREGFVDGLVRKAVELGVPPMTALQMATINAATYLQLDDEIGGIAPGKLADILLLPDLVTFQPSLVIAKGRIVARDGKLLAPLPEIDWKRYVSKKPFLFAKERLDDERLYRYPHSESDQPVPVMYFKSNVITERKDVALPSVDGYADLSHHPGLLYAALIDRNGQWVAKAILERFALDIDGMASTYNTTTELLVIGKQPEAMAAAAKRVLEMGGGIVVIDGGRPVVEIPLPFTGMMTTDDSFDTAVRFHDELLSALQERGFPFHDILYTLLFLTCDFLPGLRLIPYGLYDVKRNEILLPAEKIGEKVVK”, the protein production entry is “failed”.

Consider “MAKAAKRFRTPSTTRVLYVRHAHAHGRQTWGGDDNKRPLDKKGRRQAEMLVPMLLPFKPTAIYSAVPDRCQATALPLADELGLDVSVNRLFGDDAWETDPEACKKRFTDVVAQGGVPMIVGQGDIIPEMIKWFSENGTLPIDEKIKAKKGSVWVLSFHDGVFTGADYLEHHHHHH”, for which the protein production entry was “failed”. With “MSVKVMKRLGTLLLLVCVLIILIPQSASAHAYVVKSNPTENETLKKAPSVVKIEFDEDIQVSRFNTLYVRDTSGKRVDLKDAHIDKKNKKLLEAGLKENLKNGLYSIQWKAISADGHPIQGVIPFRIGLAEAETDDVQVEEMGYVPQIDMIMERGILYTSFSLFIGVLFFNLIMYKGNATSVRSRSKNIIWISLFGILISLLFNLPLQAKINADVSWLEAFNPLLLKETLQLSVFGYVWITQMVLISTLIIVTYFAVKHEKFSSFKVWSIPILLFIGLLVMKAFNSHAYGLKFKDIAVVMDFLHLFAASLWVGGLSSIILLLRNEDNKWHMYWDMIKRFSPWATGAVIVILITGLFNSTFFIPTIHSLFDTKYGLVLLTKILLFIFMGILGIIHYVKGRMRAQQGLGATVKVEFIIGIIIFVIVAFMTNVQTPPMPPTGPFTESKQLDNGYEMTLNVSPNRVGQNIFHITLKDENGQPVTDMEQIILTTQSLDMNMGKGSFKVSAVSPGEYEAEGMYINMTGNWNIQVHGLTKSLDSFDTDYKFIVGGR”, the protein production entry is “failed”.

Turning to “MNDRSLGILLMFLTVIFWGISFVATKIILVYIPPITLGFIRFAIAAMILIVLIRNFPSYSKKDFLNLVLAGFLGITSYFLFENVALEYTTATNAALIAATVPIFYLMVSDLVERRIPSKIQYFGSLIGLFGVSILILNGRLILELNPIGDLLMIGAVLSWVLYTFVIQKLEKHDNLTVTRDITLIGVLLSVPFMLLEFGSKGVLDLGVFLNPPLTFAVLYLAIFCSAIAYLFWNMSIRLAGASTTNNGIYFIPIVAMIADSIILKNIPNIYATIGAVLVLFGVYISEKGDKLKIKL”, the protein production result was “failed”. Consider “DKDNTDEPKETAKALGKLASESKKEILLESAYLIFDDNQLKGWQALINTGVEIKALTNSMASNDLTTNHSGYAGRRQDMLEHGIQLYELKPETELCEESTKDVSKCAPILPYGLHAKSAVFDDKIASIGSFNFNLRSTYLNTESILIIENQKIAEQLTQDIEHAMDEENSWHLKLQEGDVRWYSGDKSWESEPETGRWERFQSGFLQLLPIE”, for which the protein production result was “failed”. Regarding “MRNPHSNGNLRKLEADGGGEATEENGFVNGVILGLDGGATSTVCVCVPFFSFGERFPDPLPILGRAVAGCTNRNSVGETAARDSLEQVISEALVQSGFDKSDVRGVCLGVSGVNHPSDQEKIENWIRDMFPSHVKVYVQNDAIVALASGTMGKLHGCVLIAGTGCIAYGFDEDGKEARASGGGPILGDWGSGYGIAAQALTAVIRAHDGRGPQTMLTSTILKALGLSSPDELIGWTYADPSWARIAALVPQVVSCAEAGDEISDKILVDAAEDLALSVKAVVQRLGLCGKDGTASFPVVMVGGVLNANQKWDIGKEVSKRINRYFPGAQTIIPKVEPAVGAALLAMNFLSS”, the protein production entry was “failed”. Turning to “IARLDWSATPLGESGHWPQSLRTAVDIVIHSPMPMLLLWGAELTQIYNDGFALLAGNKHPSAFGHPAHLTWPELMDFTDPIYRAVLNGQVRTFSEQRFSLQRTNGSEYDLWLDLTYSPIRNERGDVAGILVTAIETNERRRIALELQQR”, the protein production result is “failed”.
